Biological target: T1, Tau fragment Ser-Ile-Asp-Met-Val-Asp-Ser-Pro-Gln-Leu-Ala-Thr-Leu-Ala-Asp (SEQ ID NO:10) (human)
T1 sequence (peptide, biotinylated): SIDMVDSPQLATLAD
Assay: ELISA, biotinylated peptide on streptavidin plate, absorbance 405 nm-492 nm

Max O.D. Tau fragment binding: 30 mE
B1: Mab2.10.3 (anti-Tau pS422 antibody) (antibody, IgG1, V domains shown)
VH: EVQLVESGGDLVRPGGSLKLSCAASGFTFRTYGMSWVRQTADKRLEWVATISSGGTYTYYADNVRERFTISRDNARDTLYLQMSRLESDDTAMYYCTRRYGYDGGGSFDVWGAGTRVTVSS
VL: EIVMTQAAPSVPVTPGESASISCRSNKSLLHSNGNTYLCWFLQRPGQSPQLLIYRMSTLAPGVPDRFSGSGSGTAFTLRISRLEAEDVGVYYCMQHIEYPLTFGAGTKLELK

Reference: patent US20110059093A1
